This is an account of results in publication PMC12416549 (2024).

In this test the target is T1, TNFR1 (Homo sapiens, UniProt P19438).
T1 chain: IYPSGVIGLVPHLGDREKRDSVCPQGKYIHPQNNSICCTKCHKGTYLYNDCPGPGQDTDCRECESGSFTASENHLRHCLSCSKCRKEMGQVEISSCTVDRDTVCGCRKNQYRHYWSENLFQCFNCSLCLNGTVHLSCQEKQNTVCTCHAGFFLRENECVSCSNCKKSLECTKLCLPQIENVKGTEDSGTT
In words: yeast display SC50.

B1: A90K (designed binder)
chain: MTLQELLREEALRRAEAEAFRYALELLAEKFPEQKEYLLDLAEEIESQIRSLSGVDVEDVRKFLDKEWAWVKELLAEHPAELAEVEAARKARLAELRAEVEAKVAA
For B1, the “apparent Kd (screen)” value is 0.446 nM.

B2: E67C (designed binder)
chain: MTLQELLREEALRRAEAEAFRYALELLAEKFPEQKEYLLDLAEEIESQIRSLSGVDVEDVRKFLDKCWAWVKELLAEHPAELAEVEAARAARLAELRAEVEAKVAA
For the molecule B2, the “apparent Kd (screen)” value turned out to be 5.84 nM.

B3: A94E (designed binder)
chain: MTLQELLREEALRRAEAEAFRYALELLAEKFPEQKEYLLDLAEEIESQIRSLSGVDVEDVRKFLDKEWAWVKELLAEHPAELAEVEAARAARLEELRAEVEAKVAA
With B3, the “apparent Kd (screen)” value worked out at 0.539 nM.

B4: L75P (designed binder)
chain: MTLQELLREEALRRAEAEAFRYALELLAEKFPEQKEYLLDLAEEIESQIRSLSGVDVEDVRKFLDKEWAWVKELPAEHPAELAEVEAARAARLAELRAEVEAKVAA
Take B4: the “apparent Kd (screen)” value turned out to be 2.48 nM.

B5: L3V (designed binder)
chain: MTVQELLREEALRRAEAEAFRYALELLAEKFPEQKEYLLDLAEEIESQIRSLSGVDVEDVRKFLDKEWAWVKELLAEHPAELAEVEAARAARLAELRAEVEAKVAA
Regarding B5, the “apparent Kd (screen)” value turned out to be 0.593 nM.

B6: A88M (designed binder)
chain: MTLQELLREEALRRAEAEAFRYALELLAEKFPEQKEYLLDLAEEIESQIRSLSGVDVEDVRKFLDKEWAWVKELLAEHPAELAEVEAMRAARLAELRAEVEAKVAA
As to B6, the “apparent Kd (screen)” value amounted to 0.718 nM.

B7: L93F (designed binder)
chain: MTLQELLREEALRRAEAEAFRYALELLAEKFPEQKEYLLDLAEEIESQIRSLSGVDVEDVRKFLDKEWAWVKELLAEHPAELAEVEAARAARFAELRAEVEAKVAA
Take B7: the “apparent Kd (screen)” value amounted to 0.539 nM.

B8: R97W (designed binder)
chain: MTLQELLREEALRRAEAEAFRYALELLAEKFPEQKEYLLDLAEEIESQIRSLSGVDVEDVRKFLDKEWAWVKELLAEHPAELAEVEAARAARLAELWAEVEAKVAA
Consider B8, for which the “apparent Kd (screen)” value came to 0.49 nM.

B9: G54K (designed binder)
chain: MTLQELLREEALRRAEAEAFRYALELLAEKFPEQKEYLLDLAEEIESQIRSLSKVDVEDVRKFLDKEWAWVKELLAEHPAELAEVEAARAARLAELRAEVEAKVAA
B9: the “apparent Kd (screen)” value came to 12.5 nM.

B10: A17P (designed binder)
chain: MTLQELLREEALRRAEPEAFRYALELLAEKFPEQKEYLLDLAEEIESQIRSLSGVDVEDVRKFLDKEWAWVKELLAEHPAELAEVEAARAARLAELRAEVEAKVAA
On to B10, for which the “apparent Kd (screen)” value worked out at 0.718 nM.

B11: A94I (designed binder)
chain: MTLQELLREEALRRAEAEAFRYALELLAEKFPEQKEYLLDLAEEIESQIRSLSGVDVEDVRKFLDKEWAWVKELLAEHPAELAEVEAARAARLIELRAEVEAKVAA
Turning to B11, the “apparent Kd (screen)” value was 0.956 nM.

B12: A102S (designed binder)
chain: MTLQELLREEALRRAEAEAFRYALELLAEKFPEQKEYLLDLAEEIESQIRSLSGVDVEDVRKFLDKEWAWVKELLAEHPAELAEVEAARAARLAELRAEVESKVAA
Regarding B12, the “apparent Kd (screen)” value was found to be 0.79 nM.

B13: R14T (designed binder)
chain: MTLQELLREEALRTAEAEAFRYALELLAEKFPEQKEYLLDLAEEIESQIRSLSGVDVEDVRKFLDKEWAWVKELLAEHPAELAEVEAARAARLAELRAEVEAKVAA
As to B13, the “apparent Kd (screen)” value came out at 0.49 nM.

B14: L27S (designed binder)
chain: MTLQELLREEALRRAEAEAFRYALELSAEKFPEQKEYLLDLAEEIESQIRSLSGVDVEDVRKFLDKEWAWVKELLAEHPAELAEVEAARAARLAELRAEVEAKVAA
With B14, the “apparent Kd (screen)” value turned out to be 0.593 nM.

B15: I45S (designed binder)
chain: MTLQELLREEALRRAEAEAFRYALELLAEKFPEQKEYLLDLAEESESQIRSLSGVDVEDVRKFLDKEWAWVKELLAEHPAELAEVEAARAARLAELRAEVEAKVAA
Regarding B15, the “apparent Kd (screen)” value worked out at 7.78 nM.

B16: R89W (designed binder)
chain: MTLQELLREEALRRAEAEAFRYALELLAEKFPEQKEYLLDLAEEIESQIRSLSGVDVEDVRKFLDKEWAWVKELLAEHPAELAEVEAAWAARLAELRAEVEAKVAA
On to B16, for which the “apparent Kd (screen)” value worked out at 0.956 nM.

B17: E29I (designed binder)
chain: MTLQELLREEALRRAEAEAFRYALELLAIKFPEQKEYLLDLAEEIESQIRSLSGVDVEDVRKFLDKEWAWVKELLAEHPAELAEVEAARAARLAELRAEVEAKVAA
As for B17, the “apparent Kd (screen)” value stood at 1.16 nM.

B18: H78V (designed binder)
chain: MTLQELLREEALRRAEAEAFRYALELLAEKFPEQKEYLLDLAEEIESQIRSLSGVDVEDVRKFLDKEWAWVKELLAEVPAELAEVEAARAARLAELRAEVEAKVAA
On to B18, for which the “apparent Kd (screen)” value is 0.869 nM.

B19: A94H (designed binder)
chain: MTLQELLREEALRRAEAEAFRYALELLAEKFPEQKEYLLDLAEEIESQIRSLSGVDVEDVRKFLDKEWAWVKELLAEHPAELAEVEAARAARLHELRAEVEAKVAA
Regarding B19, the “apparent Kd (screen)” value is 0.446 nM.

B20: R92W (designed binder)
chain: MTLQELLREEALRRAEAEAFRYALELLAEKFPEQKEYLLDLAEEIESQIRSLSGVDVEDVRKFLDKEWAWVKELLAEHPAELAEVEAARAAWLAELRAEVEAKVAA
Regarding B20, the “apparent Kd (screen)” value was 0.539 nM.

B21: A15K (designed binder)
chain: MTLQELLREEALRRKEAEAFRYALELLAEKFPEQKEYLLDLAEEIESQIRSLSGVDVEDVRKFLDKEWAWVKELLAEHPAELAEVEAARAARLAELRAEVEAKVAA
Turning to B21, the “apparent Kd (screen)” value was determined as 0.49 nM.

B22: E29D (designed binder)
chain: MTLQELLREEALRRAEAEAFRYALELLADKFPEQKEYLLDLAEEIESQIRSLSGVDVEDVRKFLDKEWAWVKELLAEHPAELAEVEAARAARLAELRAEVEAKVAA
B22: the “apparent Kd (screen)” value turned out to be 0.49 nM.

B23: A80L (designed binder)
chain: MTLQELLREEALRRAEAEAFRYALELLAEKFPEQKEYLLDLAEEIESQIRSLSGVDVEDVRKFLDKEWAWVKELLAEHPLELAEVEAARAARLAELRAEVEAKVAA
For B23, the “apparent Kd (screen)” value was 0.446 nM.

B24: E33Y (designed binder)
chain: MTLQELLREEALRRAEAEAFRYALELLAEKFPYQKEYLLDLAEEIESQIRSLSGVDVEDVRKFLDKEWAWVKELLAEHPAELAEVEAARAARLAELRAEVEAKVAA
Take B24: the “apparent Kd (screen)” value came out at 0.539 nM.

B25: Y22H (designed binder)
chain: MTLQELLREEALRRAEAEAFRHALELLAEKFPEQKEYLLDLAEEIESQIRSLSGVDVEDVRKFLDKEWAWVKELLAEHPAELAEVEAARAARLAELRAEVEAKVAA
Consider B25, for which the “apparent Kd (screen)” value is 0.49 nM.

B26: A23V (designed binder)
chain: MTLQELLREEALRRAEAEAFRYVLELLAEKFPEQKEYLLDLAEEIESQIRSLSGVDVEDVRKFLDKEWAWVKELLAEHPAELAEVEAARAARLAELRAEVEAKVAA
B26: the “apparent Kd (screen)” value came out at 0.653 nM.

B27: R50T (designed binder)
chain: MTLQELLREEALRRAEAEAFRYALELLAEKFPEQKEYLLDLAEEIESQITSLSGVDVEDVRKFLDKEWAWVKELLAEHPAELAEVEAARAARLAELRAEVEAKVAA
Take B27: the “apparent Kd (screen)” value came out at 0.49 nM.

B28: E86M (designed binder)
chain: MTLQELLREEALRRAEAEAFRYALELLAEKFPEQKEYLLDLAEEIESQIRSLSGVDVEDVRKFLDKEWAWVKELLAEHPAELAEVMAARAARLAELRAEVEAKVAA
As for B28, the “apparent Kd (screen)” value is 0.79 nM.

B29: K66W (designed binder)
chain: MTLQELLREEALRRAEAEAFRYALELLAEKFPEQKEYLLDLAEEIESQIRSLSGVDVEDVRKFLDWEWAWVKELLAEHPAELAEVEAARAARLAELRAEVEAKVAA
As for B29, the “apparent Kd (screen)” value is 0.539 nM.

B30: E77D (designed binder)
chain: MTLQELLREEALRRAEAEAFRYALELLAEKFPEQKEYLLDLAEEIESQIRSLSGVDVEDVRKFLDKEWAWVKELLADHPAELAEVEAARAARLAELRAEVEAKVAA
For the molecule B30, the “apparent Kd (screen)” value is 0.653 nM.

B31: S53D (designed binder)
chain: MTLQELLREEALRRAEAEAFRYALELLAEKFPEQKEYLLDLAEEIESQIRSLDGVDVEDVRKFLDKEWAWVKELLAEHPAELAEVEAARAARLAELRAEVEAKVAA
With B31, the “apparent Kd (screen)” value amounted to 8.56 nM.

B32: L7N (designed binder)
chain: MTLQELNREEALRRAEAEAFRYALELLAEKFPEQKEYLLDLAEEIESQIRSLSGVDVEDVRKFLDKEWAWVKELLAEHPAELAEVEAARAARLAELRAEVEAKVAA
B32: the “apparent Kd (screen)” value amounted to 24.4 nM.

B33: A83E (designed binder)
chain: MTLQELLREEALRRAEAEAFRYALELLAEKFPEQKEYLLDLAEEIESQIRSLSGVDVEDVRKFLDKEWAWVKELLAEHPAELEEVEAARAARLAELRAEVEAKVAA
On to B33, for which the “apparent Kd (screen)” value is 0.593 nM.

B34: A105F (designed binder)
chain: MTLQELLREEALRRAEAEAFRYALELLAEKFPEQKEYLLDLAEEIESQIRSLSGVDVEDVRKFLDKEWAWVKELLAEHPAELAEVEAARAARLAELRAEVEAKVFA
For the molecule B34, the “apparent Kd (screen)” value amounted to 0.869 nM.
